Test results from publication PMC2654577.
Read-outs that look alike come from different tables or passages of the source.

Key:
Assay in all cases: enzyme inhibition kinetics
[1] = target: factor XIa catalytic domain R173A (human) (UniProt P03951)
[2] = target: factor XIa catalytic domain K175A (human)
[3] = target: full-length factor XIa autolysis loop variant fXIa-144-149A (human)
[4] = target: factor XIa catalytic domain K179A (human)
[5] = target: factor XIa catalytic domain R171A (human) (UniProt P03951)
[6] = target: full-length factor XIa with a Gln substitution for Arg-37 (human)
[7] = target: factor XIa catalytic domain K170A (human) (UniProt P03951)
[8] = target: factor XIa catalytic domain R173A (human) (UniProt P03951); remark: listed apart in the source
[9] = target: factor XIa catalytic domain K175A (human); remark: listed apart in the source
[10] = target: factor XIa catalytic domain K179A (human); remark: listed apart in the source
[11] = target: factor XIa catalytic domain R171A (human) (UniProt P03951); remark: listed apart in the source
[12] = target: full-length factor XIa with a Gln substitution for Arg-37 (human); remark: listed apart in the source
[13] = target: factor XIa catalytic domain K170A (human) (UniProt P03951); remark: listed apart in the source
[14] = target: factor XIa catalytic domain K175A (human); remark: listed apart in the source
[15] = target: factor XIa catalytic domain K179A (human); remark: listed apart in the source
[16] = target: factor XIa catalytic domain R171A (human) (UniProt P03951); remark: listed apart in the source
[17] = target: wild type recombinant factor XIa, full length (human)
[18] = target: factor XIa catalytic domain K170A (human) (UniProt P03951); remark: listed apart in the source

antithrombin (from UniProt P01008 33-464) (natural protein)
k2 (second-order inhibition rate constant) [1]: 210 M⁻¹ s⁻¹ | k2 (second-order inhibition rate constant) [2]: 180 M⁻¹ s⁻¹ | k2 (second-order inhibition rate constant), maximal [3]: 200000 M⁻¹ s⁻¹ | k2 (second-order inhibition rate constant) [4]: 250 M⁻¹ s⁻¹ | k2 (second-order inhibition rate constant) [5]: 490 M⁻¹ s⁻¹ | k2 (second-order inhibition rate constant) [6]: 1550 M⁻¹ s⁻¹ | k2 (second-order inhibition rate constant) [7]: 230 M⁻¹ s⁻¹ | k2 (second-order inhibition rate constant) [8]: 560 M⁻¹ s⁻¹ | k2 (second-order inhibition rate constant) [9]: 550 M⁻¹ s⁻¹ | k2 (second-order inhibition rate constant) [10]: 680 M⁻¹ s⁻¹ | k2 (second-order inhibition rate constant) [11]: 1200 M⁻¹ s⁻¹ | k2 (second-order inhibition rate constant) [12]: 2620 M⁻¹ s⁻¹ | k2 (second-order inhibition rate constant) [13]: 610 M⁻¹ s⁻¹ | k2 (second-order inhibition rate constant) [14]: 17000 M⁻¹ s⁻¹ | k2 (second-order inhibition rate constant) [15]: 50000 M⁻¹ s⁻¹ | k2 (second-order inhibition rate constant) [16]: 18000 M⁻¹ s⁻¹ | k2 (second-order inhibition rate constant) [17]: 223000 M⁻¹ s⁻¹ | k2 (second-order inhibition rate constant) [18]: 12000 M⁻¹ s⁻¹
